The chains are these.
B6: cyno-CD200R1 ECD (receptor)
chain: AAQSNNSLMLQTSKENHTLASNSLCMDEKQITQNHSKVLAEVNISWPVQMARNAVLCCPPIEFRNLIVITWEIILRGQPSCTKTYRKDTNETKETNCTDERITWVSTPDQNSDLQIHPVAITHDGYYRCIMATPDGNFHRGYHLQVLVTPEVTLFESRNRTAVCKAVAGKPAAQISWIPAGDCAPTEQEYWGNGTVTVKSTCHWEGHNVSTVTCHVSHLTGNKSLYIELLPVPGAKKSAKLGGGSGLNDIFEAQKIEWHEGSGGHHHHHHHH
notes: also called cynomolgus monkey CD200R1; MfCD200R1 (recombinant)

Assay [1] addresses T1, hu-CD200R1-iso1-Ref ECD (human).
T1 chain: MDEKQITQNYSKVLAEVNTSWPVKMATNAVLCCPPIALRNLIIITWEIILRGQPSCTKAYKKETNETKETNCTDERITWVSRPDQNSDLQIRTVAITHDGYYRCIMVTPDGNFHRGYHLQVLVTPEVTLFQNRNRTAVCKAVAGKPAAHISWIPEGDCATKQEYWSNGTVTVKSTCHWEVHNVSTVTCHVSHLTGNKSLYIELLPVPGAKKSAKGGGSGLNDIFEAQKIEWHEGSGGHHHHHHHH
As to the kind of experiment: blocking ELISA; biotin-CD200R1 + antibody dilutions on coated hu-CD200-Fc.
Description: (§1) After removing the coating solution, unspecific binding was blocked with PBS containing 1% bovine serum albumin (BSA) and incubation at room temperature for one hour. Plates were then washed five times in PBS with 0.05% TWEEN®-20 (wash buffer).

Assay [2] deals with T2, hu-CD200R1-iso1-Alt ECD (human).
T2 chain: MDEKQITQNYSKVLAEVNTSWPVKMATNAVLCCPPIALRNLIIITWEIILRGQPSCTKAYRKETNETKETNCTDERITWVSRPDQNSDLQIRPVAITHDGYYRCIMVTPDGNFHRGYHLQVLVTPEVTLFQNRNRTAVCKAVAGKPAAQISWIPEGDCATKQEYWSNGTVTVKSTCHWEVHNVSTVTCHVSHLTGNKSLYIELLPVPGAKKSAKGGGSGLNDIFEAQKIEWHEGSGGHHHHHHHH
Described as above.
Description: as §1

For assay [3], the target named is T3, hu-CD200R1-iso4-Ref ECD (human).
T3 chain: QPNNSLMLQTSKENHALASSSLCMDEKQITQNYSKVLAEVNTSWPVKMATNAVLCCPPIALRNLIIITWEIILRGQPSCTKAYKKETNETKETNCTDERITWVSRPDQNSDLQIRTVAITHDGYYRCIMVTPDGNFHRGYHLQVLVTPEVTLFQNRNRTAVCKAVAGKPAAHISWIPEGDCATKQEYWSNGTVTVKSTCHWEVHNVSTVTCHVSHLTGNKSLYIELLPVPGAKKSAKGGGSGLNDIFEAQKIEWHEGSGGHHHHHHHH
Described as above.
Description: as §1

Assay [4] concerns the target T4, hu-CD200R1-iso4-Alt ECD (human).
T4 construct: also called isoform 4 alt
T4 chain: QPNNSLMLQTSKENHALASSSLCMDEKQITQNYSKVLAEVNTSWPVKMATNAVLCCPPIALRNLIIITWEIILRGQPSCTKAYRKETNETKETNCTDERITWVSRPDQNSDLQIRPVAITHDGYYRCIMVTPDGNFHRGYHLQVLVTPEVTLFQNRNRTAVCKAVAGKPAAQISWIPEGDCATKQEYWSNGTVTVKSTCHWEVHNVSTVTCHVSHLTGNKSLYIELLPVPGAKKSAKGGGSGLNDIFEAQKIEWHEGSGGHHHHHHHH
The assay is described as above.
Description: as §1

In assay [5] the target is T1, hu-CD200R1-iso1-Ref ECD. Kind of assay: SPR Biacore 8K 37C; biotin-CD200R1 captured, antibody analyte.
Description: (§2) For kinetics measurements, 3 nM biotinylated human CD200R1. […] The sensorgram was recorded and subject to reference and buffer subtraction before evaluating by BIACORE® 8K Evaluation Software (version 1.1.1.7442).
(§3) Association rates (kₒₙ) and dissociation rates (koff) were calculated using a simple one-to-one Langmuir binding model. The equilibrium dissociation constant (KD) was calculated as the ratio of koff/kₒₙ.
For assay [6], the target named is T2, hu-CD200R1-iso1-Alt ECD. The description is as above.
Description: as §2, §3
Assay [7] has as its target T3, hu-CD200R1-iso4-Ref ECD. The assay is described as above.
Description: as §2, §3
The target in assay [8] is T4, hu-CD200R1-iso4-Alt ECD. The description is as above.
Description: as §2, §3
Assay [9] concerns the target B6. Kind of assay: blocking ELISA, MfCD200R1 to immobilized MfCD200.
Description: (§4) Binding was evaluated by incubating with HRP-streptavidin and colorimetric substrate, followed by monitoring the OD450 in each well.
In assay [10] the target is B6. As to the kind of experiment: blocking ELISA; biotin-cyno-CD200R1 + antibody dilutions on coated cyno-CD200-Fc. Background: In an ELISA, binding on a coated surface is turned into a signal by an enzyme label.
The target of assay [11] is T3, hu-CD200R1-iso4-Ref ECD. Kind of assay: blocking ELISA; biotin-hu-CD200R1 + antibody dilutions on coated hu-CD200-Fc.
Description: as §1
The target of assay [12] is B6. As to the kind of experiment: SPR Biacore 8K 37C; antibody on Protein A chip, CD200R1 analyte.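 Also: sensorgrams corrected by subtracting reference and buffer signals, then analysed with Biacore 8K Evaluation Software.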 For orientation: SPR reads the build-up and loss of mass on a sensor chip optically.
Description: (§5) The sensorgram was recorded and subject to reference and buffer subtraction before evaluation by BIACORE®8K Evaluation Software (version 1.1.1.7442). Association rates (kₒ₀) and dissociation rates (koff) were calculated using a simple one-to-one Langmuir binding model.
Assay [13] concerns the target T3, hu-CD200R1-iso4-Ref ECD. Described as above.
Description: as §5
The target of assay [14] is T4, hu-CD200R1-iso4-Alt ECD. The assay is described as above.
Description: as §5
Assay [15] addresses B6. As to the kind of experiment: SPR binding affinity to recombinant MfCD200R1.
The target in assay [16] is B6. As to the kind of experiment: Biacore, binding to MfCD200R1.
In assay [17] the target is T5, cyno-CD200-Fc (cynomolgus monkey).
T5 construct: also called MfCD200-Fc; Fc-tagged MfCD200
Kind of assay: ELISA: biotinylated MfCD200R1 (0.12 ug/ml) on plate-immobilised Fc-tagged MfCD200, HRP-streptavidin, OD450.
Description: as §4

T5 sequence (chain, as listed by the source limits assumed): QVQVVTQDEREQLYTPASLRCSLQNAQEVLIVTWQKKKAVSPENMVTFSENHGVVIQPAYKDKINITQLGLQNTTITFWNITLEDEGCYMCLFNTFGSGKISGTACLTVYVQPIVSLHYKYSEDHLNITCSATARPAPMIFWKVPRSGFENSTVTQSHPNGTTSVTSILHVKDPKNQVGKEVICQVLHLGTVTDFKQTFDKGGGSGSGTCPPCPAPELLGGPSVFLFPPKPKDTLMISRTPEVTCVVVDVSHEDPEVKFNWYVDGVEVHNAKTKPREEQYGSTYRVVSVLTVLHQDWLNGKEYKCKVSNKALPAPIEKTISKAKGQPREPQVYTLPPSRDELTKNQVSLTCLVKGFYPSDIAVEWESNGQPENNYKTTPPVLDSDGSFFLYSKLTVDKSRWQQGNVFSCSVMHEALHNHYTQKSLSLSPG

B1: h22.1 (humanized 22.1 IgG) (antibody, V domains shown)
VH: EVQLVQSGAEVKKPGASVKVSCKASGYTFTSYVMFWVRQAPGQRLEWIGYINPYNDDTKYNEKFKGRATLTSDKSASTAYMELSSLRSEDTAVYYCAREDYYGSRFVYWGQGTLVTVSS
VL: DIQLTQSPSSLSASVGDRVTITCRASKSVSTSGYSYMHWYQQKPGKPPKLLIYLASNLESGVPSRFSGSGSGTDFTLTISSLQPEDFATYYCQHNRELLTFGGGTKVEIKR
As a reminder, the IC50 is the point on the concentration scale where inhibition reaches its midpoint. One may read the Kd as the equilibrium constant for the complex coming apart. The term koff denotes the first-order rate constant of dissociation. A low value points to a long-lived complex. By kon is commonly meant a measure of how fast the partners come together. Read a low kon as slower complex formation. On to B1, for which the IC50 in [1] amounted to 5.86 nM; in assay [2], 7.45 nM; in assay [3], 5.32 nM; in assay [4] it was 4.59 nM. The Kd in [5] turned out to be 0.501 nM; in assay [6], 0.535 nM; in [7], 1.92 nM; in [8], 1.92 nM. Also, the koff in assay [5] is 0.00151 s⁻¹; in assay [6] it was 0.00166 s⁻¹; in [7], 0.00115 s⁻¹; in [8], 0.00116 s⁻¹. Moreover, the kon turned out to be 3.02e+06 M⁻¹ s⁻¹ in assay [5], 3.11e+06 M⁻¹ s⁻¹ in assay [6], 598000 M⁻¹ s⁻¹ in assay [7] and 604000 M⁻¹ s⁻¹ in assay [8].

B2: h10F6.V1 (antibody, IgG1, V domains shown)
VH: EVQLQESGPGLVKPSETLSLTCTVSGFSLTNYRVSWVRQPPGKGLEWLGVMYAGGGTNYNSVFKSRLTISKDNSKNQVSLKLSSVTAADTAVYYCARERPLTGVMDNWGQGTLVTVSS
VL: DIVLTQSPDSLAVSLGERATINCRASESVDYSGNSFMHWFQQKPGQPPKLLIYRASNLESGIPDRFSGSGSRTDFTLTISSLQAEDVAVYYCHQSNWDPPTFGGGTKVEIKR
notes: differs by 3 residues in the heavy chain CDRs and 1 in the light chain CDRs; also called surrogate antibody
With B2, the IC50 in [9] came out at 2.45 nM; in [10], 2.44 nM; in assay [11] it was 0.58 nM. The Kd in assay [12] turned out to be 10.5 nM; in assay [13] it was 0.716 nM; in [14] it was 0.814 nM; in assay [15], 2.63 nM; in assay [16], 2.63 nM. The koff stood at 0.00457 s⁻¹ in [12], 0.000964 s⁻¹ in assay [13] and 0.00117 s⁻¹ in [14]. For the same molecule, the kon in assay [12] came to 436000 M⁻¹ s⁻¹; in assay [13] it was 1.35e+06 M⁻¹ s⁻¹; in assay [14], 1.44e+06 M⁻¹ s⁻¹.

B3: h10F6.V4 (antibody, IgG1, V domains shown)
VH: EVQLQESGPGLVKPSETLSLTCTVSGFSLTNYWVSWVRQPPGKGLEWLGTMWAGGGTNYNSVFKSRLTISKDNSKNQVSLKLSSVTAADTAVYYCARERPLTGPMDYWGQGTLVTVSS
VL: DIVLTQSPDSLAVSLGERATINCRASESVDYSGNSFMHWFQQKPGQPPKLLIYRASNLESGIPDRFSGSGSRTDFTLTISSLQAEDVAVYYCHQSNWDPPTFGGGTKVEIKR
notes: IgG1 variant of h10F6
On to B3, for which the 50% inhibitory concentration (IC50) was determined as 2.15 nM in [10] and 10.9 nM in assay [11]. The Kd in assay [12] was 5.87 nM; in [13] it was 8.93 nM; in assay [14], 9.99 nM. The koff turned out to be 0.00113 s⁻¹ in [12], 0.00336 s⁻¹ in assay [13] and 0.00387 s⁻¹ in assay [14]. In addition, the results for the kon in [12], in assay [13] and in [14] were 193000 M⁻¹ s⁻¹, 377000 M⁻¹ s⁻¹ and 388000 M⁻¹ s⁻¹, respectively.

B4: h10F6.V3 (antibody, IgG1, V domains shown)
VH: EVQLQESGPGLVKPSETLSLTCTVSGFSLTNYRVSWVRQPPGKGLEWLGVMYAGGGTNYNSVFKSRLTISKDNSKNQVSLKLSSVTAADTAVYYCARERPLTGVMDNWGQGTLVTVSS
VL: DIVLTQSPDSLAVSLGERATINCRASESVDYSGNSFMHWFQQKPGQPPKLLIYRASNLESGIPDRFSGSGSRTDFTLTISSLQAEDVAVYYCHQSNEDPPTFGGGTKVEIKR
notes: IgG1 variant of h10F6
B4: the IC50 in [10] turned out to be 11.4 nM; in assay [11], 0.56 nM. Further, the Kd in assay [12] turned out to be 60.7 nM; in assay [13], 0.817 nM; in assay [14], 0.935 nM. Further, the koff in assay [12] turned out to be 0.0195 s⁻¹; in assay [13], 0.00153 s⁻¹; in assay [14], 0.00191 s⁻¹. The on-rate constant (kon) in assay [12] turned out to be 322000 M⁻¹ s⁻¹; in assay [13] it was 1.88e+06 M⁻¹ s⁻¹; in assay [14] it was 2.04e+06 M⁻¹ s⁻¹.

B5: h10F6.V2 (antibody, IgG1, V domains shown)
VH: EVQLQESGPGLVKPSETLSLTCTVSGFSLTNYWVSWVRQPPGKGLEWLGTMWAGGGTNYNSVFKSRLTISKDNSKNQVSLKLSSVTAADTAVYYCARERPLTGPMDYWGQGTLVTVSS
VL: DIVLTQSPDSLAVSLGERATINCRASESVDYSGNSFMHWFQQKPGQPPKLLIYRASNLESGIPDRFSGSGSRTDFTLTISSLQAEDVAVYYCHQSNEDPPTFGGGTKVEIKR
notes: IgG1 variant of h10F6
For B5, the IC50 in [10] worked out at 4.25 nM; in assay [11] it was 4.79 nM. Also, the Kd worked out at 16.3 nM in [12], 6.04 nM in [13] and 6.68 nM in [14]. Also, the koff came to 0.00351 s⁻¹ in [12], 0.00367 s⁻¹ in [13] and 0.00425 s⁻¹ in assay [14]. Further, the values for the kon in assay [12], in [13] and in assay [14] were 216000 M⁻¹ s⁻¹, 607000 M⁻¹ s⁻¹ and 635000 M⁻¹ s⁻¹, respectively.
For the molecule B6, the binding result in assay [17] is given as “binds”.

Values taken from patent publication US20260022171A1 (23ANDME, published 2026).
